Measured values: publication PMC8298264, “Function of cofactor Akirin2 in the regulation of gene expression in model human neutrophil-like HL60 cells” (Bioscience Reports, 2021)

B1: sp¦Q15006¦EMC2_HUMAN (protein, UniProt Q15006 2-297, looked up)
ER membrane protein complex …: AKVSELYDVTWEEMRDKMRKWREENSRNSEQIVEVGEELINEYASKLGDDIWIIYEQVMIAALDYGRDDLALFCLQELRRQFPGSHRVKRLTGMRFEAMERYDDAIQLYDRILQEDPTNTAARKRKIAIRKAQGKNVEAIRELNEYLEQFVGDQEAWHELAELYINEHDYAKAAFCLEELMMTNPHNHLYCQQYAEVKYTQGGLENLELSRKYFAQALKLNNRNMRALFGLYMSASHIASNPKASAKTKKDNMKYASWAASQINRAYQFAGRSKKETKYSLKAVEDMLETLQITQS
B2: sp¦Q52LJ0¦FA98B_HUMAN (protein, UniProt Q52LJ0 1-433, looked up)
Protein FAM98B: MRGPEPGPQPTMEGDVLDTLEALGYKGPLLEEQALTKAAEGGLSSPEFSELCIWLGSQIKSLCNLEESITSAGRDDLESFQLEISGFLKEMACPYSVLISGDIKDRLKKKEDCLKLLLFLSTELQASQILQNKKHKNSQLDKNSEVYQEVQAMFDTLGIPKSTTSDIPHMLNQVESKVKDILSKVQKNHVGKPLLKMDLNSEQAEQLERINDALSCEYECRRRMLMKRLDVTVQSFGWSDRAKVKTDDIARIYQPKRYALSPKTTITMAHLLAAREDLSKIIRTSSGTSREKTACAINKVLMGRVPDRGGRPNEIEPPPPEMPPWQKRQEGGGGRGGWGGGGGGGGRGGGGGGGGRGGWGGGGGGWGGGGGGGGGWGGGGGGGRGGFQGRGDYGGRGGYGGRGGYGGRGYGDPYGGGGGGGGGGGGGGGYRRY
B3: sp¦O94874¦UFL1_HUMAN (protein, UniProt O94874 2-794, looked up)
E3 UFM1-protein ligase 1: ADAWEEIRRLAADFQRAQFAEATQRLSERNCIEIVNKLIAQKQLEVVHTLDGKEYITPAQISKEMRDELHVRGGRVNIVDLQQVINVDLIHIENRIGDIIKSEKHVQLVLGQLIDENYLDRLAEEVNDKLQESGQVTISELCKTYDLPGNFLTQALTQRLGRIISGHIDLDNRGVIFTEAFVARHKARIRGLFSAITRPTAVNSLISKYGFQEQLLYSVLEELVNSGRLRGTVVGGRQDKAVFVPDIYSRTQSTWVDSFFRQNGYLEFDALSRLGIPDAVSYIKKRYKTTQLLFLKAACVGQGLVDQVEASVEEAISSGTWVDIAPLLPTSLSVEDAAILLQQVMRAFSKQASTVVFSDTVVVSEKFINDCTELFRELMHQKAEKEMKNNPVHLITEEDLKQISTLESVSTSKKDKKDERRRKATEGSGSMRGGGGGNAREYKIKKVKKKGRKDDDSDDESQSSHTGKKKPEISFMFQDEIEDFLRKHIQDAPEEFISELAEYLIKPLNKTYLEVVRSVFMSSTTSASGTGRKRTIKDLQEEVSNLYNNIRLFEKGMKFFADDTQAALTKHLLKSVCTDITNLIFNFLASDLMMAVDDPAAITSEIRKKILSKLSEETKVALTKLHNSLNEKSIEDFISCLDSAAEACDIMVKRGDKKRERQILFQHRQALAEQLKVTEDPALILHLTSVLLFQFSTHSMLHAPGRCVPQIIAFLNSKIPEDQHALLVKYQGLVVKQLVSQSKKTGQGDYPLNNELDKEQEDVASTTRKELQELSSSIKDLVLKSRKSSVTEE
B4: sp¦Q70J99¦UN13D_HUMAN (protein, UniProt Q70J99 1-1090, looked up)
Protein unc-13 homolog D: MATLLSHPQQRPPFLRQAIKIRRRRVRDLQDPPPQMAPEIQPPSHHFSPEQRALLYEDALYTVLHRLGHPEPNHVTEASELLRYLQEAFHVEPEEHQQTLQRVRELEKPIFCLKATVKQAKGILGKDVSGFSDPYCLLGIEQGVGVPGGSPGSRHRQKAVVRHTIPEEETHRTQVITQTLNPVWDETFILEFEDITNASFHLDMWDLDTVESVRQKLGELTDLHGLRRIFKEARKDKGQDDFLGNVVLRLQDLRCREDQWYPLEPRTETYPDRGQCHLQFQLIHKRRATSASRSQPSYTVHLHLLQQLVSHEVTQHEAGSTSWDGSLSPQAATVLFLHATQKDLSDFHQSMAQWLAYSRLYQSLEFPSSCLLHPITSIEYQWIQGRLKAEQQEELAASFSSLLTYGLSLIRRFRSVFPLSVSDSPARLQSLLRVLVQMCKMKAFGELCPNTAPLPQLVTEALQTGTTEWFHLKQQHHQPMVQGIPEAGKALLGLVQDVIGDLHQCQRTWDKIFHNTLKIHLFSMAFRELQWLVAKRVQDHTTVVGDVVSPEMGESLFQLYISLKELCQLRMSSSERDGVLALDNFHRWFQPAIPSWLQKTYNEALARVQRAVQMDELVPLGELTKHSTSAVDLSTCFAQISHTARQLDWPDPEEAFMITVKFVEDTCRLALVYCSLIKARARELSSGQKDQGQAANMLCVVVNDMEQLRLVIGKLPAQLAWEALEQRVGAVLEQGQLQNTLHAQLQSALAGLGHEIRTGVRTLAEQLEVGIAKHIQKLVGVRESVLPEDAILPLMKFLEVELCYMNTNLVQENFSSLLTLLWTHTLTVLVEAAASQRSSSLASNRLKIALQNLEICFHAEGCGLPPKALHTATFQALQRDLELQAASSRELIRKYFCSRIQQQAETTSEELGAVTVKASYRASEQKLRVELLSASSLLPLDSNGSSDPFVQLTLEPRHEFPELAARETQKHKKDLHPLFDETFEFLVPAEPCRKAGACLLLTVLDYDTLGADDLEGEAFLPLREVPGLSGSEEPGEVPQTRLPLTYPAPNGDPILQLLEGRKGDREAQVFVRLRRHRAKQASQHALRPAP
B5: sp¦Q86W42¦THOC6_HUMAN (protein, UniProt Q86W42 1-341, looked up)
THO complex subunit 6: MERAVPLAVPLGQTEVFQALQRLHMTIFSQSVSPCGKFLAAGNNYGQIAIFSLSSALSSEAKEESKKPVVTFQAHDGPVYSMVSTDRHLLSAGDGEVKAWLWAEMLKKGCKELWRRQPPYRTSLEVPEINALLLVPKENSLILAGGDCQLHTMDLETGTFTRVLRGHTDYIHCLALRERSPEVLSGGEDGAVRLWDLRTAKEVQTIEVYKHEECSRPHNGRWIGCLATDSDWMVCGGGPALTLWHLRSSTPTTIFPIRAPQKHVTFYQDLILSAGQGRCVNQWQLSGELKAQVPGSSPGLLSLSLNQQPAAPECKVLTAAGNSCRVDVFTNLGYRAFSLSF
B6: sp¦P50570¦DYN2_HUMAN (protein, UniProt P50570 1-870, looked up)
Dynamin-2: MGNRGMEELIPLVNKLQDAFSSIGQSCHLDLPQIAVVGGQSAGKSSVLENFVGRDFLPRGSGIVTRRPLILQLIFSKTEHAEFLHCKSKKFTDFDEVRQEIEAETDRVTGTNKGISPVPINLRVYSPHVLNLTLIDLPGITKVPVGDQPPDIEYQIKDMILQFISRESSLILAVTPANMDLANSDALKLAKEVDPQGLRTIGVITKLDLMDEGTDARDVLENKLLPLRRGYIGVVNRSQKDIEGKKDIRAALAAERKFFLSHPAYRHMADRMGTPHLQKTLNQQLTNHIRESLPALRSKLQSQLLSLEKEVEEYKNFRPDDPTRKTKALLQMVQQFGVDFEKRIEGSGDQVDTLELSGGARINRIFHERFPFELVKMEFDEKDLRREISYAIKNIHGVRTGLFTPDLAFEAIVKKQVVKLKEPCLKCVDLVIQELINTVRQCTSKLSSYPRLREETERIVTTYIREREGRTKDQILLLIDIEQSYINTNHEDFIGFANAQQRSTQLNKKRAIPNQGEILVIRRGWLTINNISLMKGGSKEYWFVLTAESLSWYKDEEEKEKKYMLPLDNLKIRDVEKGFMSNKHVFAIFNTEQRNVYKDLRQIELACDSQEDVDSWKASFLRAGVYPEKDQAENEDGAQENTFSMDPQLERQVETIRNLVDSYVAIINKSIRDLMPKTIMHLMINNTKAFIHHELLAYLYSSADQSSLMEESADQAQRRDDMLRMYHALKEALNIIGDISTSTVSTPVPPPVDDTWLQSASSHSPTPQRRPVSSIHPPGRPPAVRGPTPGPPLIPVPVGAAASFSAPPIPSRPGPQSVFANSDLFPAPPQIPSRPVRIPPGIPPGVPSRRPPAAPSRPTIIRPAEPSLLD
B7: sp¦P43490¦NAMPT_HUMAN (protein, UniProt P43490 1-491, looked up)
Nicotinamide …: MNPAAEAEFNILLATDSYKVTHYKQYPPNTSKVYSYFECREKKTENSKLRKVKYEETVFYGLQYILNKYLKGKVVTKEKIQEAKDVYKEHFQDDVFNEKGWNYILEKYDGHLPIEIKAVPEGFVIPRGNVLFTVENTDPECYWLTNWIETILVQSWYPITVATNSREQKKILAKYLLETSGNLDGLEYKLHDFGYRGVSSQETAGIGASAHLVNFKGTDTVAGLALIKKYYGTKDPVPGYSVPAAEHSTITAWGKDHEKDAFEHIVTQFSSVPVSVVSDSYDIYNACEKIWGEDLRHLIVSRSTQAPLIIRPDSGNPLDTVLKVLEILGKKFPVTENSKGYKLLPPYLRVIQGDGVDINTLQEIVEGMKQKMWSIENIAFGSGGGLLQKLTRDLLNCSFKCSYVVTNGLGINVFKDPVADPNKRSKKGRLSLHRTPAGNFVTLEEGKGDLEEYGQDLLHTVFKNGKVTKSYSFDEIRKNAQLNIELEAAHH
B8: sp¦Q9BTE7¦DCNL5_HUMAN (protein, UniProt Q9BTE7 1-237, looked up)
DCN1-like protein 5: MPVKKKRKSPGVAAAVAEDGGLKKCKISSYCRSQPPARLISGEEHFSSKKCLAWFYEYAGPDEVVGPEGMEKFCEDIGVEPENIIMLVLAWKLEAESMGFFTKEEWLKGMTSLQCDCTEKLQNKFDFLRSQLNDISSFKNIYRYAFDFARDKDQRSLDIDTAKSMLALLLGRTWPLFSVFYQYLEQSKYRVMNKDQWYNVLEFSRTVHADLSNYDEDGAWPVLLDEFVEWQKVRQTS
B9: sp¦O95573¦ACSL3_HUMAN (protein, UniProt O95573 1-720, looked up)
Fatty acid CoA ligase Acsl3: MNNHVSSKPSTMKLKHTINPILLYFIHFLISLYTILTYIPFYFFSESRQEKSNRIKAKPVNSKPDSAYRSVNSLDGLASVLYPGCDTLDKVFTYAKNKFKNKRLLGTREVLNEEDEVQPNGKIFKKVILGQYNWLSYEDVFVRAFNFGNGLQMLGQKPKTNIAIFCETRAEWMIAAQACFMYNFQLVTLYATLGGPAIVHALNETEVTNIITSKELLQTKLKDIVSLVPRLRHIITVDGKPPTWSEFPKGIIVHTMAAVEALGAKASMENQPHSKPLPSDIAVIMYTSGSTGLPKGVMISHSNIIAGITGMAERIPELGEEDVYIGYLPLAHVLELSAELVCLSHGCRIGYSSPQTLADQSSKIKKGSKGDTSMLKPTLMAAVPEIMDRIYKNVMNKVSEMSSFQRNLFILAYNYKMEQISKGRNTPLCDSFVFRKVRSLLGGNIRLLLCGGAPLSATTQRFMNICFCCPVGQGYGLTESAGAGTISEVWDYNTGRVGAPLVCCEIKLKNWEEGGYFNTDKPHPRGEILIGGQSVTMGYYKNEAKTKADFFEDENGQRWLCTGDIGEFEPDGCLKIIDRKKDLVKLQAGEYVSLGKVEAALKNLPLVDNICAYANSYHSYVIGFVVPNQKELTELARKKGLKGTWEELCNSCEMENEVLKVLSEAAISASLEKFEIPVKIRLSPEPWTPETGLVTDAFKLKRKELKTHYQADIERMYGRK

These molecules were tested on human HL60 cells (assay: SWATH-MS proteomics, differential protein representation, akirin2 KO vs WT HL60 cells). Details: SWATH-MS, akirin2 KO vs WT HL60 cells; sheet "Under-represented in KO".
Type: cell-based
Outline: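 Proteins from WT and akirin2 KO HL60 cells (n=3 biological replicates) were FASP trypsin-digested and analyzed by SWATH-MS DIA with variable windows against an IDA-derived spectral library. Identifications at 1% global FDR; quantities normalized to total area sums of all detected proteins.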

Molecule | Fold Change | Log (Fold Change)
B1 | 0.7911 | -0.1017
B2 | 0.7848 | -0.1053
B3 | 0.7911 | -0.1018
B4 | 0.785 | -0.1051
B5 | 0.7851 | -0.1051
B6 | 0.7916 | -0.1015
B7 | 0.7897 | -0.1025
B8 | 0.7927 | -0.1009

Same assay, conditions: akirin2 KO vs WT HL60 cells; sheet "Under-represented in KO"

Molecule | Fold Change | Log (Fold Change)
B9 | 0.3507 | -0.4551
